What follows are sequences tested on Escherichia coli TOP10 (assay: shrunken log2 fold change of peptide-encoding DNA abundance (4.5 h post-induction vs induction); higher = less antimicrobial activity (less host growth inhibition)). Conditions: time post-induction: 4.5 h; library: site-saturation at positions 5, 18, 19, 20.
With RRIRMRPPRLPRPRPRPITQPRP the “shrunken log2 fold change” value was -0.00846. In the case of RRIRKRPPRLPRPRPRPKESPRP, the “shrunken log2 fold change” value is reported as -0.0162. RRIRDRPPRLPRPRPRPKNWPRP was tested, and the “shrunken log2 fold change” value was 2.51. RRIRQRPPRLPRPRPRPGNLPRP was tested, and the “shrunken log2 fold change” value was 0.0588. In the case of RRIRFRPPRLPRPRPRPCDWPRP, the “shrunken log2 fold change” value is reported as -0.0151. RRIRCRPPRLPRPRPRPVKTPRP was tested, and the “shrunken log2 fold change” value was -0.132. For RRIRCRPPRLPRPRPRPAQVPRP, the “shrunken log2 fold change” value was -0.053. In the case of RRIRIRPPRLPRPRPRPQSTPRP, the “shrunken log2 fold change” value is reported as -0.427. RRIRIRPPRLPRPRPRPWMLPRP was tested, and the “shrunken log2 fold change” value was -0.13. With RRIRHRPPRLPRPRPRPKPCPRP the “shrunken log2 fold change” value was -0.139. RRIRQRPPRLPRPRPRPMLWPRP was tested, and the “shrunken log2 fold change” value was -0.00459. RRIRVRPPRLPRPRPRPHNLPRP was tested, and the “shrunken log2 fold change” value was -0.356. For RRIRNRPPRLPRPRPRPARQPRP, the “shrunken log2 fold change” value was 0.304. With RRIRARPPRLPRPRPRPEPPPRP the “shrunken log2 fold change” value was 1.27. With RRIRPRPPRLPRPRPRPQKVPRP the “shrunken log2 fold change” value was 0.0449. RRIRTRPPRLPRPRPRPSSAPRP was tested, and the “shrunken log2 fold change” value was -0.172. For RRIRSRPPRLPRPRPRPQWNPRP, the “shrunken log2 fold change” value was -0.259. In the case of RRIRFRPPRLPRPRPRPNKVPRP, the “shrunken log2 fold change” value is reported as -0.92. In the case of RRIRPRPPRLPRPRPRPHWWPRP, the “shrunken log2 fold change” value is reported as 0.507. With RRIRQRPPRLPRPRPRPGIQPRP the “shrunken log2 fold change” value was -0.056. In the case of RRIRGRPPRLPRPRPRPVFAPRP, the “shrunken log2 fold change” value is reported as 0.696. For RRIRARPPRLPRPRPRPFVAPRP, the “shrunken log2 fold change” value was 0.254. RRIRARPPRLPRPRPRPQNSPRP was tested, and the “shrunken log2 fold change” value was -0.23. For RRIRARPPRLPRPRPRPATLPRP, the “shrunken log2 fold change” value was 0.34. With RRIRVRPPRLPRPRPRPPTCPRP the “shrunken log2 fold change” value was 0.141. For RRIRWRPPRLPRPRPRPATYPRP, the “shrunken log2 fold change” value was 0.0311. In the case of RRIRWRPPRLPRPRPRPRIQPRP, the “shrunken log2 fold change” value is reported as 0.273. RRIRKRPPRLPRPRPRPIQEPRP was tested, and the “shrunken log2 fold change” value was 0.000523. For RRIRYRPPRLPRPRPRPRKYPRP, the “shrunken log2 fold change” value was -0.333. In the case of RRIRMRPPRLPRPRPRPLCDPRP, the “shrunken log2 fold change” value is reported as 1.11. In the case of RRIRDRPPRLPRPRPRPRHTPRP, the “shrunken log2 fold change” value is reported as 0.122. RRIRIRPPRLPRPRPRPHTYPRP was tested, and the “shrunken log2 fold change” value was -0.715. For RRIRKRPPRLPRPRPRPVASPRP, the “shrunken log2 fold change” value was 0.533. With RRIRCRPPRLPRPRPRPAKLPRP the “shrunken log2 fold change” value was 0.0355. With RRIRNRPPRLPRPRPRPSMAPRP the “shrunken log2 fold change” value was -0.139. In the case of RRIRSRPPRLPRPRPRPDCDPRP, the “shrunken log2 fold change” value is reported as 0.152. With RRIRGRPPRLPRPRPRPRTMPRP the “shrunken log2 fold change” value was 0.539. RRIRWRPPRLPRPRPRPAENPRP was tested, and the “shrunken log2 fold change” value was 0.568. With RRIRRRPPRLPRPRPRPYKSPRP the “shrunken log2 fold change” value was -0.239. RRIRVRPPRLPRPRPRPFLCPRP was tested, and the “shrunken log2 fold change” value was -0.0159. RRIRVRPPRLPRPRPRPTTLPRP was tested, and the “shrunken log2 fold change” value was -0.111. In the case of RRIRMRPPRLPRPRPRPKWAPRP, the “shrunken log2 fold change” value is reported as 0.0251. With RRIRVRPPRLPRPRPRPWMVPRP the “shrunken log2 fold change” value was -0.208. For RRIRVRPPRLPRPRPRPCPRPRP, the “shrunken log2 fold change” value was 0.368. For RRIRPRPPRLPRPRPRPGRRPRP, the “shrunken log2 fold change” value was 0.123. RRIRKRPPRLPRPRPRPDYIPRP was tested, and the “shrunken log2 fold change” value was -0.0117. For RRIRIRPPRLPRPRPRPMWSPRP, the “shrunken log2 fold change” value was 0.045. In the case of RRIRWRPPRLPRPRPRPQLRPRP, the “shrunken log2 fold change” value is reported as 0.0178. In the case of RRIRQRPPRLPRPRPRPTINPRP, the “shrunken log2 fold change” value is reported as -0.362. For RRIRYRPPRLPRPRPRPCRIPRP, the “shrunken log2 fold change” value was -0.0823. With RRIRWRPPRLPRPRPRPVHFPRP the “shrunken log2 fold change” value was -0.0407. RRIRMRPPRLPRPRPRPCVTPRP was tested, and the “shrunken log2 fold change” value was 0.0301. RRIRKRPPRLPRPRPRPDVFPRP was tested, and the “shrunken log2 fold change” value was -0.162. For RRIRCRPPRLPRPRPRPQPRPRP, the “shrunken log2 fold change” value was 0.745. In the case of RRIRDRPPRLPRPRPRPIHQPRP, the “shrunken log2 fold change” value is reported as -0.241. RRIRPRPPRLPRPRPRPDWNPRP was tested, and the “shrunken log2 fold change” value was -0.0666. With RRIRLRPPRLPRPRPRPSHAPRP the “shrunken log2 fold change” value was 0.212. RRIRKRPPRLPRPRPRPLCCPRP was tested, and the “shrunken log2 fold change” value was 0.104. For RRIRGRPPRLPRPRPRPYYCPRP, the “shrunken log2 fold change” value was -0.172. With RRIRVRPPRLPRPRPRPLGHPRP the “shrunken log2 fold change” value was 0.0376. For RRIRNRPPRLPRPRPRPMLYPRP, the “shrunken log2 fold change” value was -0.318. For RRIRCRPPRLPRPRPRPNINPRP, the “shrunken log2 fold change” value was -0.181. For RRIRARPPRLPRPRPRPAKEPRP, the “shrunken log2 fold change” value was 0.521. RRIRRRPPRLPRPRPRPSGFPRP was tested, and the “shrunken log2 fold change” value was 0.0452. For RRIRLRPPRLPRPRPRPWRYPRP, the “shrunken log2 fold change” value was -0.268. RRIRCRPPRLPRPRPRPFLVPRP was tested, and the “shrunken log2 fold change” value was -0.511. For RRIRYRPPRLPRPRPRPTQCPRP, the “shrunken log2 fold change” value was -0.0863. For RRIRARPPRLPRPRPRPKYHPRP, the “shrunken log2 fold change” value was -0.103. RRIRHRPPRLPRPRPRPVVIPRP was tested, and the “shrunken log2 fold change” value was -0.759. RRIRMRPPRLPRPRPRPSDLPRP was tested, and the “shrunken log2 fold change” value was -0.035. With RRIRYRPPRLPRPRPRPCYKPRP the “shrunken log2 fold change” value was -0.0156. In the case of RRIRYRPPRLPRPRPRPYGAPRP, the “shrunken log2 fold change” value is reported as -0.202. For RRIRNRPPRLPRPRPRPYYTPRP, the “shrunken log2 fold change” value was -1.27. For RRIRVRPPRLPRPRPRPQRIPRP, the “shrunken log2 fold change” value was -0.544. For RRIRKRPPRLPRPRPRPHMFPRP, the “shrunken log2 fold change” value was -0.469.
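Note: peptides expressed intracellularly from a pBAD plasmid library in pooled LB shake-flask culture, induced with 0.3% L-arabinose, DNA abundance read by NGS, three biological replicates, DESeq2 with apeglm shrinkage.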
